From the Immune Epitope Database (IEDB)
Values belong to the sequence of their own block, whether it stands above or below them.

Tests used:
HLA-B*51:01 = test: IEDB peptide-MHC binding, purified MHC/competitive/fluorescence; filed as Kd, often an IC50 or EC50 that approximates it; ≥ and ≤ were set here for values at or beyond the usual limits of such assays; conditions: source organism: Zaire ebolavirus
HLA-B*27:03 = test: as above
HLA-B*18:01 [1] = test: as above
HLA-A*26:01 = test: as above
HLA-B*15:17 = test: as above; conditions: source organism: Zaire ebolavirus
HLA-B*39:01 = test: as above; conditions: source organism: Zaire ebolavirus
HLA-A*02:01 [2] = test: as above
HLA-B*15:01 = test: as above
HLA-A*69:01 = test: as above; conditions: source organism: Zaire ebolavirus
HLA-B*57:01 = test: as above
HLA-B*46:01 = test: as above
HLA-A*02:16 = test: IEDB peptide-MHC binding, purified MHC/direct/fluorescence; filed as Kd, often an IC50 or EC50 that approximates it; ≥ and ≤ were set here for values at or beyond the usual limits of such assays; conditions: source organism: Zaire ebolavirus
HLA-A*02:12 = test: as above; conditions: source organism: Zaire ebolavirus
HLA-A*02:03 = test: as above; conditions: source organism: Zaire ebolavirus
HLA-A*02:11 = test: as above; conditions: source organism: Zaire ebolavirus
HLA-A*02:19 = test: as above; conditions: source organism: Zaire ebolavirus
HLA-A*03:01 [3] = test: as above; conditions: source organism: Zaire ebolavirus
HLA-A*29:02 [4] = test: as above; conditions: source organism: Zaire ebolavirus
HLA-A*68:02 [5] = test: as above; conditions: source organism: Zaire ebolavirus
HLA-A*24:03 [6] = test: as above; conditions: source organism: Zaire ebolavirus
HLA-A*24:02 [7] = test: IEDB peptide-MHC binding, purified MHC/competitive/fluorescence; ≥ and ≤ were set here for values at or beyond the usual limits of such assays; conditions: source organism: Sudan ebolavirus
HLA-B*44:03 = test: IEDB peptide-MHC binding, purified MHC/competitive/radioactivity; filed as Kd, often an IC50 or EC50 that approximates it; ≥ and ≤ were set here for values at or beyond the usual limits of such assays
HLA-A*24:02 [8] = test: as above; conditions: source organism: Lassa virus Josiah
HLA-B*40:01 [9] = test: as above
HLA-B*18:01 [10] = test: as above
HLA-B*44:02 = test: as above
HLA-B*40:02 = test: as above
HLA-A*23:01 = test: as above; conditions: source organism: Lassa virus Josiah
HLA-A*29:02 [11] = test: as above; conditions: source organism: Lassa virus Josiah
HLA-B*45:01 = test: as above
HLA-A*02:17 = test: as above; conditions: source organism: Dengue virus 3 Martinique/1243/1999
HLA-A*02:01 [12] = test: as above; conditions: source organism: Dengue virus 3 Martinique/1243/1999
HLA-A*24:03 [13] = test: IEDB peptide-MHC binding, purified MHC/competitive/fluorescence; filed as Kd, often an IC50 or EC50 that approximates it; ≥ and ≤ were set here for values at or beyond the usual limits of such assays
HLA-B*40:01 [14] = test: IEDB peptide-MHC binding, purified MHC/direct/fluorescence; filed as Kd, often an IC50 or EC50 that approximates it; ≥ and ≤ were set here for values at or beyond the usual limits of such assays; conditions: source organism: Reston ebolavirus - Reston
HLA-A*68:02 [15] = test: IEDB peptide-MHC binding, purified MHC/competitive/fluorescence; filed as Kd, often an IC50 or EC50 that approximates it; ≥ and ≤ were set here for values at or beyond the usual limits of such assays; conditions: source organism: Escherichia coli HS
HLA-A*03:01 [16] = test: as above; conditions: source organism: Homo sapiens
[17] = source organism: Zaire ebolavirus
[18] = source organism: Lassa virus Josiah
[19] = source organism: SARS coronavirus Tor2
[20] = source organism: Mammarenavirus brazilense
[21] = source organism: Mammarenavirus juninense

Sequence: EWAENCYNL
Kd (HLA-B*51:01): ≥ 20 µM
Kd (HLA-B*27:03; [17]): ≥ 20 µM
Kd (HLA-B*18:01 [1]; [17]): ≥ 20 µM
Kd (HLA-A*26:01; [17]): ≥ 20 µM
Kd (HLA-B*15:17): ≥ 20 µM
Kd (HLA-B*39:01): ≥ 20 µM
Kd (HLA-A*02:01 [2]; [17]): ≥ 20 µM
Kd (HLA-B*15:01; [17]): ≥ 20 µM
Kd (HLA-A*69:01): ≥ 20 µM
Kd (HLA-B*57:01; [17]): ≥ 20 µM
Kd (HLA-B*46:01; [17]): ≥ 20 µM
Kd (HLA-A*02:16): ≥ 20 µM
Kd (HLA-A*02:12): ≥ 20 µM
Kd (HLA-A*02:03): ≥ 20 µM
Kd (HLA-A*02:11): ≥ 20 µM
Kd (HLA-A*02:19): ≥ 20 µM
Kd (HLA-A*03:01 [3]): ≥ 20 µM
Kd (HLA-A*29:02 [4]): ≥ 20 µM
Kd (HLA-A*68:02 [5]): ≥ 20 µM
Kd (HLA-A*24:03 [6]): ≥ 20 µM
IC50 (HLA-A*24:02 [7]): 6.48 µM

Sequence: YDHALMSII
Kd (HLA-B*44:03; [18]): ≥ 33.4 µM
Kd (HLA-A*24:02 [8]): ≥ 30.8 µM
Kd (HLA-B*40:01 [9]; [18]): ≥ 26.6 µM
Kd (HLA-B*18:01 [10]; [18]): ≥ 25.4 µM
Kd (HLA-B*44:02; [18]): 7.05 µM
Kd (HLA-B*40:02; [18]): 0.0495 µM
Kd (HLA-A*23:01): 7.73 µM
Kd (HLA-A*29:02 [11]): ≥ 46.6 µM
Kd (HLA-B*45:01; [18]): ≥ 68.6 µM

Sequence: FEEAALCTFL
Kd (HLA-B*44:03; [19]): 0.0459 µM
Kd (HLA-B*40:01 [9]; [19]): 0.00198 µM
Kd (HLA-B*18:01 [10]; [19]): 0.477 µM
Kd (HLA-B*44:02; [19]): 0.0962 µM
Kd (HLA-B*40:02; [19]): 0.014 µM
Kd (HLA-B*45:01; [19]): 0.163 µM

Sequence: QLWTALISL
Kd (HLA-A*02:17): 0.234 µM
Kd (HLA-A*02:01 [12]): 0.00145 µM

Sequence: PFGQWDQTF
Kd (HLA-A*24:03 [13]; source organism: Yersinia pestis Antiqua): 0.209 µM

Sequence: AENGELTEI
Kd (HLA-B*44:03; [20]): 0.319 µM
Kd (HLA-B*40:01 [9]; [20]): 2.03 µM
Kd (HLA-B*18:01 [10]; [20]): ≥ 77.5 µM
Kd (HLA-B*44:02; [20]): 0.181 µM
Kd (HLA-B*40:02; [20]): 0.0478 µM
Kd (HLA-B*45:01; [20]): 0.074 µM

Sequence: DETKKQVNLM
Kd (HLA-B*44:03; [21]): ≥ 70.1 µM
Kd (HLA-B*40:01 [9]; [21]): 14.6 µM
Kd (HLA-B*18:01 [10]; [21]): 9.01 µM
Kd (HLA-B*44:02; [21]): ≥ 64.6 µM
Kd (HLA-B*40:02; [21]): ≥ 70.8 µM
Kd (HLA-B*45:01; [21]): ≥ 33.1 µM

Sequence: DEMVCKWLL
Kd (HLA-B*51:01): ≥ 20 µM
Kd (HLA-B*27:03; [17]): ≥ 20 µM
Kd (HLA-A*26:01; [17]): ≥ 20 µM
Kd (HLA-B*15:17): ≥ 20 µM
Kd (HLA-B*39:01): ≥ 20 µM
Kd (HLA-A*02:01 [2]; [17]): ≥ 20 µM
Kd (HLA-B*15:01; [17]): ≥ 20 µM
Kd (HLA-B*57:01; [17]): ≥ 20 µM
Kd (HLA-B*46:01; [17]): ≥ 20 µM
Kd (HLA-A*02:16): ≥ 20 µM
Kd (HLA-A*02:12): ≥ 20 µM
Kd (HLA-A*02:03): ≥ 20 µM
Kd (HLA-A*02:11): ≥ 20 µM
Kd (HLA-B*40:01 [14]): 0.387 µM
Kd (HLA-A*02:19): ≥ 20 µM
Kd (HLA-A*03:01 [3]): ≥ 20 µM
Kd (HLA-A*29:02 [4]): ≥ 20 µM
Kd (HLA-A*68:02 [5]): ≥ 20 µM
Kd (HLA-A*24:03 [6]): ≥ 20 µM

Kd (HLA-A*68:02 [15]): 0.0015 µM
Sequence: NCADHFEGV

Kd (HLA-B*27:03; source organism: Homo sapiens): ≥ 20 µM
Kd (HLA-B*18:01 [1]; source organism: Homo sapiens): ≥ 20 µM
Kd (HLA-A*26:01; source organism: Homo sapiens): ≥ 20 µM
Kd (HLA-A*02:01 [2]; source organism: Homo sapiens): 0.0003 µM
Kd (HLA-B*15:01; source organism: Homo sapiens): ≥ 20 µM
Kd (HLA-A*03:01 [16]): ≥ 20 µM
Kd (HLA-B*57:01; source organism: Homo sapiens): ≥ 20 µM
Kd (HLA-A*24:03 [13]; source organism: Homo sapiens): ≥ 20 µM
Kd (HLA-B*46:01; source organism: Homo sapiens): ≥ 20 µM
Sequence: WLGHPFTPV
